In article PMC4970744:

Molecular target: HPV-16Q150A peptide (Human papillomavirus type 16)
Test: affinity purification with mass spectrometry; biotinylated peptide (500 ug) on streptavidin magnetic sepharose beads; pre-cleared HaCaT cell extract, 2 h at 4°C; lysis buffer 50 mM HEPES pH 7.4, 150 mM NaCl, 1 mM MgCl2, 1% Triton X-100; trypsin digest and mass spectroscopy; pooled from at least two pull-downs

B1: ZO-2 (natural protein)
chain: MPVRGDRGFPPRRELSGWLRAPGMEELIWEQYTVTLQKDSKRGFGIAVSGGRDNPHFENGETSIVISDVLPGGPADGLLQENDRVVMVNGTPMEDVLHSFAVQQLRKSGKVAAIVVKRPRKVQVAALQASPPLDQDDRAFEVMDEFDGRSFRSGYSERSRLNSHGGRSRSWEDSPERGRPHERARSRERDLSRDRSRGRSLERGLDQDHARTRDRSRGRSLERGLDHDFGPSRDRDRDRSRGRSIDQDYERAYHRAYDPDYERAYSPEYRRGARHDARSRGPRSRSREHPHSRSPSPEPRGRPGPIGVLLMKSRANEEYGLRLGSQIFVKEMTRTGLATKDGNLHEGDIILKINGTVTENMSLTDARKLIEKSRGKLQLVVLRDSQQTLINIPSLNDSDSEIEDISEIESNRSFSPEERRHQYSDYDYHSSSEKLKERPSSREDTPSRLSRMGATPTPFKSTGDIAGTVVPETNKEPRYQEDPPAPQPKAAPRTFLRPSPEDEAIYGPNTKMVRFKKGDSVGLRLAGGNDVGIFVAGIQEGTSAEQEGLQEGDQILKVNTQDFRGLVREDAVLYLLEIPKGEMVTILAQSRADVYRDILACGRGDSFFIRSHFECEKETPQSLAFTRGEVFRVVDTLYDGKLGNWLAVRIGNELEKGLIPNKSRAEQMASVQNAQRDNAGDRADFWRMRGQRSGVKKNLRKSREDLTAVVSVSTKFPAYERVLLREAGFKRPVVLFGPIADIAMEKLANELPDWFQTAKTEPKDAGSEKSTGVVRLNTVRQIIEQDKHALLDVTPKAVDLLNYTQWFPIVIFFNPDSRQGVKTMRQRLNPTSNKSSRKLFDQANKLKKTCAHLFTATINLNSANDSWFGSLKDTIQHQQGEAVWVSEGKMEGMDDDPEDRMSYLTAMGADYLSCDSRLISDFEDTDGEGGAYTDNELDEPAEEPLVSSITRSSEPVQHEESIRKPSPEPRAQMRRAASSDQLRDNSPPPAFKPEPPKAKTQNKEESYDFSKSYEYKSNPSAVAGNETPGASTKGYPPPVAAKPTFGRSILKPSTPIPPQEGEEVGESSEEQDNAPKSVLGKVKIFEKMDHKARLQRMQELQEAQNARIEIAQKHPDIYAVPIKTHKPDPGTPQHTSSRPPEPQKAPSRPYQDTRGSYGSDAEEEEYRQQLSEHSKRGYYGQSARYRDTEL
reduction in binding against the HPV-16 peptide: 25%
